{"source": "patent US20170173105A1", "about": "“AUTOASSEMBLING PEPTIDES FOR THE TREATMENT OF PULMONARY LEAKAGE” (3-D MATRIX, LTD., priority 2014, published 2017)", "key": {"[1]": {"experiment": "Appearance of 1.5% peptide solutions with various salts at room temperature", "type": "physicochemical", "conditions": "for Appearance: IEIK13 solution, room temperature", "protocol": "The effect of salt ionic strength level on the properties of peptide solutions was evaluated to identify optimized salt ionic strength levels for the peptides as described herein. Increasing the salt ionic strength level of PuraMatrix® and other peptides may generally improve its function and mechanical strength for various clinical applications. To adjust the salt ionic strength of the peptide solutions by way of example, various salt buffer solutions including NaCl, KCl, MgCl2, CaCl2 and DPBS (10×) were added to 2 mL of 1.5% peptide solutions."}, "[2]": {"experiment": "Rheological properties of pH adjusted peptide solutions and hydrogels (stress/frequency sweep)", "type": "physicochemical", "protocol": "Based on the visual observation of the effect of pH level on the properties of the peptide solutions, the effect on the rheological properties of the peptide solutions after adjusting their pH level to 3.4 (PuraMatrix® and KLD12) or 3.7 (IEIK13) was evaluated. If the pH levels of peptide solutions are higher than 3.5 (PuraMatrix® and KLD12) or 3.7 (IEIK13), the peptide solution began phase separation becoming cloudy. The rheological properties of PuraMatrix®, KLD12 and IEIK13 solutions were higher at pH 3.4. The results are shown in FIG. 2 for KLD12 1%, FIG. 3 for IEIK13 1%, and FIGS. 4-5 for PuraMatrix® 1% and 2.5%, respectively. Stress sweep tests were performed at 10 rad/s. Frequency sweep tests were performed at 1 Pa.\nBased on the results of the effect on the rheological properties of the peptide solutions after adjusting their pH level to 3.4 (PuraMatrix® and KLD12) or 3.7 (IEIK13), the effect on the rheological properties of the peptide solutions at various pH levels was evaluated. […] The rheological properties of peptides were evaluated at various concentrations using a rheometer (DHR-1, TA Instruments) with 20 mm plates. The results are shown in FIG. 6A for PuraMatrix® 2.5% solution and FIG. 6B for IEIK13 1.5% solution, respectively. Frequency sweep tests were performed from 1 rad/sec to 10 rad/sec at 1 Pa and the storage modulus at 1 rad/sec was selected for data.\nBased on the results of the effect on the rheological properties of the peptide solutions after adjusting their pH level, the effect on the rheological properties of the peptide hydrogels at various pH after DMEM treatment was evaluated and compared to the effect on the rheological properties of the peptide solutions at various pH before DMEM treatment. […] The results are shown in FIGS. 7A-7B for PuraMatrix® and FIGS. 8A-8B for IEIK (SEQ ID NO: 5), respectively. Frequency sweep tests were performed from 1 rad/sec to 10 rad/sec at 1 Pa and the storage modulus at 1 rad/sec was selected for data."}}}
{"substance": "Ile-Glu-Ile-Lys-Ile-Glu-Ile-Lys-Ile-Glu-Ile-Lys-Ile [IEIK13]", "values": [{"measurement": "Appearance", "setting": "[1]; CaCl2 0 M, ionic strength 0 M, conc. 1.5%", "value": "Clear, thick gel"}, {"measurement": "Appearance", "setting": "[1]; CaCl2 0.005 M, ionic strength 0.015 M, conc. 1.46%", "value": "Clear, thick, stiffer gel"}, {"measurement": "Appearance", "setting": "[1]; CaCl2 0.0067 M, ionic strength 0.02 M, conc. 1.45%", "value": "Clear, thick, stiffer gel"}, {"measurement": "Appearance", "setting": "[1]; CaCl2 0.0083 M, ionic strength 0.025 M, conc. 1.44%", "value": "Clear, thick, stiffer gel"}, {"measurement": "Appearance", "setting": "[1]; CaCl2 0.01 M, ionic strength 0.03 M, conc. 1.43%", "value": "Clear, thick, stiffer gel"}, {"measurement": "Appearance", "setting": "[1]; CaCl2 0.0117 M, ionic strength 0.035 M, conc. 1.41%", "value": "Clear, thick, stiffer gel"}, {"measurement": "Appearance", "setting": "[1]; CaCl2 0.0133 M, ionic strength 0.04 M, conc. 1.40%", "value": "Slightly cloudy, thick, stiffer gel"}, {"measurement": "Appearance", "setting": "[1]; CaCl2 0.015 M, ionic strength 0.045 M, conc. 1.39%", "value": "Slightly cloudy, thick, stiffer gel"}, {"measurement": "Appearance", "setting": "[1]; CaCl2 0.0167 M, ionic strength 0.05 M, conc. 1.37%", "value": "Slightly cloudy, brittle gel"}, {"measurement": "Appearance", "setting": "[1]; CaCl2 0.0183 M, ionic strength 0.055 M, conc. 1.36%", "value": "Cloudy, phase-separated"}, {"measurement": "Appearance", "setting": "[1]; KCl 0 M, ionic strength 0 M, conc. 1.5%", "value": "Clear, thick gel"}, {"measurement": "Appearance", "setting": "[1]; KCl 0.005 M, ionic strength 0.005 M, conc. 1.46%", "value": "Clear, thick, stiffer gel"}, {"measurement": "Appearance", "setting": "[1]; KCl 0.01 M, ionic strength 0.01 M, conc. 1.43%", "value": "Clear, thick, stiffer gel"}, {"measurement": "Appearance", "setting": "[1]; KCl 0.015 M, ionic strength 0.015 M, conc. 1.39%", "value": "Clear, thick, stiffer gel"}, {"measurement": "Appearance", "setting": "[1]; KCl 0.02 M, ionic strength 0.02 M, conc. 1.35%", "value": "Clear, thick, stiffer gel"}, {"measurement": "Appearance", "setting": "[1]; KCl 0.025 M, ionic strength 0.025 M, conc. 1.31%", "value": "Clear, thick, stiffer gel"}, {"measurement": "Appearance", "setting": "[1]; KCl 0.03 M, ionic strength 0.03 M, conc. 1.27%", "value": "Clear, thick, stiffer gel"}, {"measurement": "Appearance", "setting": "[1]; KCl 0.035 M, ionic strength 0.035 M, conc. 1.24%", "value": "Slightly cloudy, brittle gel"}, {"measurement": "Appearance", "setting": "[1]; KCl 0.04 M, ionic strength 0.04 M, conc. 1.2%", "value": "Slightly cloudy, brittle"}, {"measurement": "Appearance", "setting": "[1]; KCl 0.045 M, ionic strength 0.045 M, conc. 1.16%", "value": "Cloudy, phase-separated"}, {"measurement": "Appearance", "setting": "[1]; MgCl2 0 M, ionic strength 0 M, conc. 1.5%", "value": "Clear, thick gel"}, {"measurement": "Appearance", "setting": "[1]; MgCl2 0.005 M, ionic strength 0.015 M, conc. 1.46%", "value": "Clear, thick, stiffer gel"}, {"measurement": "Appearance", "setting": "[1]; MgCl2 0.0067 M, ionic strength 0.02 M, conc. 1.45%", "value": "Clear, thick, stiffer gel"}, {"measurement": "Appearance", "setting": "[1]; MgCl2 0.0083 M, ionic strength 0.025 M, conc. 1.44%", "value": "Clear, thick, stiffer gel"}, {"measurement": "Appearance", "setting": "[1]; MgCl2 0.01 M, ionic strength 0.03 M, conc. 1.43%", "value": "Clear, thick, stiffer gel"}, {"measurement": "Appearance", "setting": "[1]; MgCl2 0.0117 M, ionic strength 0.035 M, conc. 1.41%", "value": "Clear, thick, stiffer gel"}, {"measurement": "Appearance", "setting": "[1]; MgCl2 0.0133 M, ionic strength 0.04 M, conc. 1.40%", "value": "Slightly cloudy, thick, stiffer gel"}, {"measurement": "Appearance", "setting": "[1]; MgCl2 0.015 M, ionic strength 0.045 M, conc. 1.39%", "value": "Slightly cloudy, stiffer gel"}, {"measurement": "Appearance", "setting": "[1]; MgCl2 0.0167 M, ionic strength 0.05 M, conc. 1.37%", "value": "Slightly cloudy, brittle gel"}, {"measurement": "Appearance", "setting": "[1]; MgCl2 0.0183 M, ionic strength 0.055 M, conc. 1.36%", "value": "Cloudy, phase-separated"}, {"measurement": "Appearance", "setting": "[1]; NaCl 0 M, ionic strength 0 M, conc. 1.5%", "value": "Clear, thick gel"}, {"measurement": "Appearance", "setting": "[1]; NaCl 0.005 M, ionic strength 0.005 M, conc. 1.46%", "value": "Clear, thick, stiffer gel"}, {"measurement": "Appearance", "setting": "[1]; NaCl 0.01 M, ionic strength 0.01 M, conc. 1.43%", "value": "Clear, thick, stiffer gel"}, {"measurement": "Appearance", "setting": "[1]; NaCl 0.015 M, ionic strength 0.015 M, conc. 1.39%", "value": "Clear, thick, stiffer gel"}, {"measurement": "Appearance", "setting": "[1]; NaCl 0.02 M, ionic strength 0.02 M, conc. 1.35%", "value": "Clear, thick, stiffer gel"}, {"measurement": "Appearance", "setting": "[1]; NaCl 0.025 M, ionic strength 0.025 M, conc. 1.31%", "value": "Clear, thick, stiffer gel"}, {"measurement": "Appearance", "setting": "[1]; NaCl 0.03 M, ionic strength 0.03 M, conc. 1.27%", "value": "Slightly cloudy, thick, stiffer gel"}, {"measurement": "Appearance", "setting": "[1]; NaCl 0.035 M, ionic strength 0.035 M, conc. 1.24%", "value": "Slightly cloudy, brittle gel"}, {"measurement": "Appearance", "setting": "[1]; NaCl 0.04 M, ionic strength 0.04 M, conc. 1.2%", "value": "Cloudy, phase-separated"}, {"measurement": "apparent stiffness on salt ionic strength increase", "setting": "[1]; up to the ionic strength at which solutions stay clear", "value": "increased"}, {"measurement": "pH level at which the peptide solution began phase separation becoming cloudy", "setting": "[2]", "value": "> 3.7"}, {"measurement": "rheological property of solutions at various pH levels", "setting": "[2]; PuraMatrix 2.5% solution, IEIK13 1.5% solution, storage modulus at 1 rad/sec", "value": "increases with pH adjustment up to 3.4"}, {"measurement": "rheological property of hydrogels after DMEM treatment at various pH", "setting": "[2]; after DMEM treatment, storage modulus at 1 rad/sec", "value": "increases with pH adjustment up to 3.4"}, {"measurement": "rheological properties of solutions after pH adjustment", "setting": "[2]; at pH 3.4 (IEIK13 adjusted to 3.7), KLD12 1%, IEIK13 1%, PuraMatrix 1% and 2.5%", "value": "higher"}]}
